Experimental data: patent US7223537B2, “Detection of molecular interactions by reporter subunit complementation” (The Board of Trustees of the Leland Stanford Junior …, priority 1997, dated 2007)

Legend:
[1] = test system: T1, human EGF receptor; test: EGF receptor dimerization monitored by β-gal complementation (FACS) in C2F3 mouse myoblasts expressing chimeric receptors; assay type: cell-based
T1 construct: transmembrane domains of the human EGF receptor (amino acids 1–655) was amplified; expressed in transfected cells; host or cells: C2F3 mouse myoblasts, retrovirally transduced (pWZL-Δα-neo, pWZL-Δω-hygro), selected clone
T1 sequence (Q01279 25-1210): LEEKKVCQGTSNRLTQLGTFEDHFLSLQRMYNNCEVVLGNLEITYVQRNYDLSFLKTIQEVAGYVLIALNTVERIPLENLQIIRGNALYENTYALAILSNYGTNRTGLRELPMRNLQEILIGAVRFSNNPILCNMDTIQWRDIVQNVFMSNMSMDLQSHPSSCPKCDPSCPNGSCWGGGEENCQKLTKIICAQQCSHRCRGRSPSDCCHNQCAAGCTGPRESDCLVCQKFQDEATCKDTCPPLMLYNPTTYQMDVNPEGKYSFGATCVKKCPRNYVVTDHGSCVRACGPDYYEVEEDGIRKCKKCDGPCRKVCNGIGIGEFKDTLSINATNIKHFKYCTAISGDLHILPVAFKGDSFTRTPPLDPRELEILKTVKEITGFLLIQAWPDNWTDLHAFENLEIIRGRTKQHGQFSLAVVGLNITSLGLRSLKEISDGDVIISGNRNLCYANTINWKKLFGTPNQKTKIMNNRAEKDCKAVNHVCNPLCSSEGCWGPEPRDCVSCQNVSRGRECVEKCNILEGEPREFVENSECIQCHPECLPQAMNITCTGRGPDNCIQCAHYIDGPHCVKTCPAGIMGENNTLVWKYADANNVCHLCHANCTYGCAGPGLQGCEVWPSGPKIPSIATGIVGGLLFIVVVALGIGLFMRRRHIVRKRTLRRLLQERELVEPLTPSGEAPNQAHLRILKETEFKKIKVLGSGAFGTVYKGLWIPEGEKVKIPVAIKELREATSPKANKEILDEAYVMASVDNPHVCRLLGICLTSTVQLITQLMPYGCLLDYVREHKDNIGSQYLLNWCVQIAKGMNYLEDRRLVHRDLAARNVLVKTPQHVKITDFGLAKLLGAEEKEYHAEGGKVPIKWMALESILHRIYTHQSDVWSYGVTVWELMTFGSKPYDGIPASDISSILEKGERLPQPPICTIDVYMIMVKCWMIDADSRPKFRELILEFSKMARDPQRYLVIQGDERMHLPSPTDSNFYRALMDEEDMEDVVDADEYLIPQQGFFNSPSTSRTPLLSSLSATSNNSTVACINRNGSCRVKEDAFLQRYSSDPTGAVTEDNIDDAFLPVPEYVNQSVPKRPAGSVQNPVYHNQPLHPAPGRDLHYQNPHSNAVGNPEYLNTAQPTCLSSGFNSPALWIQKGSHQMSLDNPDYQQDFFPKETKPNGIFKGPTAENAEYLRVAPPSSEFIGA
Source text: (§1) Construction of chimeric receptors. The weakly complementing Δα and Δω deletion mutants of β-gal were each linked to a polypeptide sequence containing the extracellular and transmembrane domains of the human EGF receptor to form chimeric receptor molecules. The chimeric receptors lacked the cytoplasmic domain, and attendant tyrosine kinase activity, of the native receptor. The procedure was as follows. The sequence coding for the extracellular and transmembrane domains of the human EGF receptor (amino acids 1–655) was amplified by polymerase chain reaction (PCR) using primers that incorporated an NcoI site at the 5′ end and an XhoI site at the 3′ end of the PCR product. Although this fragment retains threonine 654, which is a site of protein kinase C (PKC) phosphorylation, arginines 656 and 657 are removed, destroying the consensus PKC recognition sequence. The amino acid sequence beginning with threonine 654 is thr-leu-glu-ser-met, with the met residue being the beginning of the β-gal sequence. The glu and ser codons are generated by the junction sequence and are not native to either EGF or β-gal.
(§2) DNAs encoding the chimeric receptors were inserted into a retroviral vector also encoding a selectable marker. For the construct containing the EGF receptor-Δα fusion, the selectable marker was the neo gene, encoding G418 resistance; while the EGF receptor-Δω fusion specified hygromycin resistance (FIG. 1B). Accordingly, the EGF receptor PCR product was digested and cloned into the NcoI and XhoI sites of the pWZL-Δα and pWZL-Δω vectors. The pWZL-Δα-neo and pWZL-Δω-hygro plasmids were constructed by cloning the lacZ Δα and Δω deletion mutants into pWZL-neo and pWZL-hygro, respectively. Mohler et al., supra; and Rossi et al. (1997) Proc. Natl. Acad. Sci. USA 94:8405–8410. Plasmids were transfected into φNX cells using Lipofectamine (Life Technologies), and virus-containing supernatant was harvested 48–72 hours later. C2F3 mouse myoblasts (Rastinejad et al. (1993) Cell 72:903–917) maintained in DME with 20% fetal bovine serum (FBS) in 10% CO2, were infected by overnight incubation in the viral supernatant. Cells containing both constructs were selected in 1 mg/ml G418 plus 1 mg/ml hygromycin, and were maintained in 400 μg/ml of each antibiotic.
(§3) EGF treatment and FACS analysis Cells were treated with mouse salivary gland EGF (Sigma) at 100 ng/ml and in some experiments were treated with tyrphostin AG1478 (Calbiochem) at 100 nM. Following all treatments, cells were rinsed with phosphate buffered saline (PBS), trypsinized, and resuspended in PBS+5% FBS. Fluorescein di-β-D-galactopyranoside (FDG; Molecular Probes) was loaded into the cells by hypotonic shock as described. Fiering et al. (1991) Cytometry 12:291–301 and Nolan et al. (1988) Proc. Natl. Acad. Sci. USA 85:2603–2607. Cells were kept on ice until analysis on the cell sorter, which was conducted 1 to 2 hours after trypsinization.
(§4) The chimeric receptor was detected by immunofluorescence using a monoclonal mouse anti-human EGF receptor antibody diluted 1:100 (clone EGFR1, Dako) and either phycoerythrin-labeled horse anti-mouse IgG (Vector) or fluorescein-labeled goat anti-mouse IgG (Cappel) diluted 1:100. Cells were trypsinized and stained in PBS+5% FBS. For each sample, FACS analysis data was collected for 5000 cells. Cells were cloned on a Becton-Dickinson FACS Vantage and analyzed on a Becton-Dickinson FACS can at the Stanford Shared FACS Facility. Data analysis was facilitated by FlowJo software (Tree Star, Inc.). Data shown here as FACS profiles were adjusted for autofluorescence using autofluorescence compensation. Alberti et al. (1987) Cytometry 8:114–119. Mean fluorescence data were adjusted for autofluorescence and for endogenous mammalian β-gal activity by subtracting the mean fluorescence of untransduced cells loaded with FDG substrate.

[2] = biological target: T2, human EGF receptor (Homo sapiens, UniProt P00533); test: as above; assay type: cell-based
T2 construct: transmembrane domains of the human EGF receptor (amino acids 1–655) was amplified; expressed in transfected cells; host or cells: C2F3 mouse myoblasts, retrovirally transduced (pWZL-Δα-neo, pWZL-Δω-hygro), selected clone
Source text: as §1, §2, §3, §4

COc1cc2ncnc(Nc3cccc(Cl)c3)c2cc1OC [tyrphostin AG1478, reference compound]
β-gal activity of cells given tyrphostin and EGF versus EGF alone ([1]; 100 nM tyrphostin AG1478 + 100 ng/ml EGF, treatment times of up to 6 hours, FIG. 9B): greater β-gal activity than cells that received EGF alone | difference in EGF receptor dimerization between EGF and EGF+tyrphostin treated cells ([1]; by 8 hours of treatment): no difference | effect of repeated administration of tyrphostin on the increased β-gal activity ([1]; tyrphostin every four hours): did not further prolong the increased β-gal activity

EGF: mouse salivary gland EGF (Sigma)
time at which dimerization peaked ([2]; 100 ng/ml EGF for 0 to 24 hours, FIG. 8): 2 to 4 h | increase in β-gal activity (chimeric receptor dimerization) in selected clone ([2]; 100 ng/ml EGF for two hours, FIG. 7E): several-fold increase | shortest EGF treatment at which dimerization could be detected ([2]; 100 ng/ml EGF, mean fluorescence, FIG. 7F): one | amount of chimeric receptor on the cell surface (immunofluorescence, FACS) ([2]; 100 ng/ml EGF, over the period that dimerization decreased, FIG. 8): remained essentially constant | response (dimerization) to a second EGF treatment ([2]; during the decline in dimerization, EGF still present): minimal

TGF-α: EGF-like growth factor that binds and activates the EGF receptor
dimerization of chimeric EGF receptor following stimulation with EGF-like growth factor [2]: Dimerization was also observed

betacellulin: EGF-like growth factor that binds and activates the EGF receptor
dimerization of chimeric EGF receptor following stimulation with EGF-like growth factor [2]: Dimerization was also observed

heparin-binding EGF-like growth factor: EGF-like growth factor that binds and activates the EGF receptor
dimerization of chimeric EGF receptor following stimulation with EGF-like growth factor [2]: Dimerization was also observed
